In patent publication US5994504:

Target: VDRE-BP (NWP nuclear VDRE binding protein, B95-8 nuclear extract) (UniProt Q9TTV2)
Experiment: competition
Details: 100-fold excess unlabeled competitor

Chain of VDRE-BP (NWP nuclear VDRE binding protein, B95-8 nuclear extract) (Q9TTV2 whole entry): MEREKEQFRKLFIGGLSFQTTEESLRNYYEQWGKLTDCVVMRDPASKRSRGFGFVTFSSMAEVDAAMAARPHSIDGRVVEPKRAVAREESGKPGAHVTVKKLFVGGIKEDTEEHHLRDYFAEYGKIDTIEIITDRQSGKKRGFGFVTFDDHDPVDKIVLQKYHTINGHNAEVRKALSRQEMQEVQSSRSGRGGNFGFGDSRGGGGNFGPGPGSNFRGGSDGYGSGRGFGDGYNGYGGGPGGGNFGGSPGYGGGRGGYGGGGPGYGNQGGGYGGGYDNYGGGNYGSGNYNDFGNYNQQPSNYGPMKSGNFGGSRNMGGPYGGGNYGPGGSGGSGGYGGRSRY

Row | Sequence | binding signal (% decrease of opVDRE band)
1 | GGTTCA direct repeat, 3 bp spacer | 61
2 | AGGTCA direct repeat, 3 bp spacer | 64
